# B1: E3 ubiquitin-protein ligase NEDD4 (Homo sapiens), P46934-3 (parent)
# chain: MAQSLRLHFAARRSNTYPLSETSGDDLDSHVHMCFKRPTRISTSNVVQMKLTPRQTALAPLIKENVQSQERSSVPSSENVNKKSSCLQISLQPTRYSGYLQSSNVLADSDDASFTCILKDGIYSSAVVDNELNAVNDGHLVSSPAICSGSLSNFSTSDNGSYSSNGSDFGSCASITSGGSYTNSVISDSSSYTFPPSDDTFLGGNLPSDSTSNRSVPNRNTTPCEIFSRSTSTDPFVQDDLEHGLEIMKLPVSRNTKIPLKRYSSLVIFPRSPSTTRPTSPTSLCTLLSKGSYQTSHQFIISPSEIAHNEDGTSAKGFLSTAVNGLRLSKTICTPGEVRDIRPLHRKGSLQKKIVLSNNTPRQTVCEKSSEGYSCVSVHFTQRKAATLDCETTNGDCKPEMSEIKLNSDSEYIKLMHRTSACLPSSQNVDCQININGELERPHSQMNKNHGILRRSISLGGAYPNISCLSSLKHNCSKGGPSQLLIKFASGNEGKVDNLSRDSNRDCTNELSNSCKPGWVVLDQPDAACHLQQQQEPSPLPPGWEERQDILGRTYYVNHESRRTQWKRPTPQDNLTDAENGNIQLQAQRAFTTRRQISEETESVDNRESSENWEIIREDEATMYSNQAFPSPPPSSNLDVPTHLAEELNARLTIFGNSAVSQPASSSNHSSRRGSLQAYTFEEQPTLPVLLPTSSGLPPGWEEKQDERGRSYYVDHNSRTTTWTKPTVQATVETSQLTSSQSSAGPQSQASTSDSGQQVTQPSEIEQGFLPKGWEVRHAPNGRPFFIDHNTKTTTWEDPRLKIPAHLRGKTSLDTSNDLGPLPPGWEERTHTDGRIFYINHNIKRTQWEDPRLENVAITGPAVPYSRDYKRKYEFFRRKLKKQNDIPNKFEMKLRRATVLEDSYRRIMGVKRADFLKARLWIEFDGEKGLDYGGVAREWFFLISKEMFNPYYGLFEYSATDNYTLQINPNSGLCNEDHLSYFKFIGRVAGMAVYHGKLLDGFFIRPFYKMMLHKPITLHDMESVDSEYYNSLRWILENDPTELDLRFIIDEELFGQTHQHELKNGGSEIVVTNKNKKEYIYLVIQWRFVNRIQKQMAAFKEGFFELIPQDLIKIFDENELELLMCGLGDVDVNDWREHTKYKNGYSANHQVIQWFWKAVLMMDSEKRIRLLQFVTGTSRVPMNGFAELYGSNGPQSFTVEQWGTPEKLPRAHTCFNRLDLPPYESFEELWDKLQMAIENTQGFDGVD
# Variants of: B1
# Settings: with spike_sars2 S
row,Variant,effect of a mutation on the interaction
1,R877Q,increasing interaction strength
2,I843R,increasing interaction strength
